From US20240239894A1, “THERAPEUTIC BINDING MOLECULES” (MedImmune Limited, priority 2020, published 2024)

Legend:
[1] = molecular target: human B7-H4 on cells (human) (UniProt Q7Z7D3); assay: flow cytometry, AF647-labelled antibody at 78 ng/ml, SKBR-3 cells
[2] = molecular target: human B7-H4 on cells (human) (UniProt Q7Z7D3); assay: flow cytometry, AF647-labelled antibody at 312 ng/ml, SKBR-3 cells

human B7-H4 on cells (human), sequence (Q7Z7D3 25-282 limits assumed): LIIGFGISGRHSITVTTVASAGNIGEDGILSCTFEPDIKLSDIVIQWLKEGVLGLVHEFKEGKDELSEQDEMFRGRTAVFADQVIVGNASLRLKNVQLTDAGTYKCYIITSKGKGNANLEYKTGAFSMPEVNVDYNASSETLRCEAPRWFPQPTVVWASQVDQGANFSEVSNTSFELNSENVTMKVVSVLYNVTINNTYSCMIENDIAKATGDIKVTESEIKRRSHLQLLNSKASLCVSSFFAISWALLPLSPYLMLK

“R347-maia human IgG1 (isotype control) (antibody)” gave a Geometric Mean : Comp-APC-A [1] of 101 and a Geometric Mean : Comp-APC-A [2] of 121.
